Measured values reported in the nanobody polyreactivity screen of Harvey et al. (2022).

Experiment: yeast display, Sf9 membrane polyspecificity reagent, FACS + sequencing; frameworks hold sequencing errors
Outline: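 Nanobodies came from a synthetic yeast display library in Saccharomyces cerevisiae BJ5465, induced with galactose for 36–48 hours and stained for 1 hour at 4 °C with 10% biotinylated, detergent-solubilized Sf9 membrane reagent. Cells were enriched on streptavidin microbeads and then FACS-sorted, with low and high (top ~1%) gates set on anti-HA fluorescence for expression and streptavidin fluorescence for reagent binding. Each polyreactivity label reflects the gate a clone came from. Genes were amplified by colony PCR, sequenced by MiSeq 2 × 250 and filtered by CDR length.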

| Sequence | polyreactivity (PSR sort gate) |
| --- | --- |
| QVQLVESGGGLVQAGGSLRLSCAASGRIFRRYAMGWNRQAPGKEMELVAAISRSGGSTYYADSVKGRFTISRDNAKNTVYLQMNSLKPEDTAVYYCNRRYITYNYDYWGQGTQVTVSS | high polyreactivity |
| QVQLVESGGGLVQAGGSLRLSCAASGRIFRRYVMGWYRPAPGKERELVATINSNGGSTYYADSVKGRFTISRDNAKNTVYLQMNSLKPEDTAVYYCAAYYRWIGGRYTPYYYWGQATQVTVSS | high polyreactivity |
| QVQLVESGGGLVQAGGSLRLSCAASGRIFRSNAKGWYRQAPRKERELVAAISGGGSTYYADSVKGRFTISRDNAKNTVYLQMNSLKPEDTAVYYCAAGRHLAYWSRDYYYWGQGTQVTVSS | high polyreactivity |
| QVQLVESGGGLVQAGGSLRLSCAASGRIFRSNAMGWYRQAPGKERELVAAISQRGGSTYYADSVKGRFTISRDNAKNTVYLQINSLKPEDTAVYYCNARGRYYSGDNWGQGTQVTVSS | high polyreactivity |
| QVQLVESGGGLVQAGGSLRLSCAASGRIFRSNAMGWYRQAPGKERELVATISRRGGSTYYADSVKGRFTISRDNAKNTVYLQMNSLKPEDTAVYYCNTRNSGSLDLYNTMDYWGQGTQVTVSS | high polyreactivity |
| QVQLVESGGGLVQAGGSLRLSCAASGRIFRSNAMGWYRQAPWKERELVATITSSGGRTYYADSVKGRFTISRDNAKNTVYLQMNSLKPEDTAVYYCIAQQRTRGQKAQWVRDEYWGQGTQVTVSS | low polyreactivity |
| QVQLVESGGGLVQAGGSLRLSCAASGRIFRSYAMGGYRQAPGKERELVAAMTSGGSTNYADSVKGRFTISRDNAKNTVYLQMNSLKPEDTAVYYCNADRWKSGYWRYDYWGQGTQVTVSS | low polyreactivity |
| QVQLVESGGGLVQAGGSLRLSCAASGRIFRSYAMGWYRQAPGKERELVAAISYSGGSTYYADSVKGRFTISRDNAKNTVYLQMNSLKPEDTAVYYCAALPGERKYIYYGYDYWGQGTQVTVSS | high polyreactivity |
| QVQLVESGGGLVQAGGSLRLSCAASGRIFRTNAMGWYRQAPGKDRELVAAISRSGGSTYYADSVKGRFTISRDNAKNTVYLQMNSLKPEDTAVYYCATRVGKILTTKYGYWGQGTQVTVSS | high polyreactivity |
| QVQLVESGGGLVQAGGSLRLSCAASGRIFRTYAMGWSRQAPGKERELVAAISGSGGRTYYADSVKGRFTISRDNAKNTVYLQMNSLKPEDTAVYYCAKYVSIVRYGSTTNYDYWGQGTQVTVSS | high polyreactivity |
| QVQLVESGGGLVQAGGSLRLSCAASGRIFRTYAMGWYRPAPGKERELVAAISGSGGRTYYADSVKGRFTISRDNAKNTVYLQMNSLKPEDTAVYYCANYVSIVRYGSTTNYDYWGQGTQVTVSS | high polyreactivity |
| QVQLVESGGGLVQAGGSLRLSCAASGRIFRVNAMGWYRQAPGKDREFVAAITASSGRTSYADSVKGRFTISRDNAQNTVYLQMNSLKPEDTAVYYCNAAVSQFSHRWRRRITFDYWGQGTQVTVSS | low polyreactivity |
| QVQLVESGGGLVQAGGSLRLSCAASGRIFRVNAMGWYRQAPGKERELVASITKSTGSTYYADSVKGRFTISRDNAKNTVYLQMNSLKPEDTAVYYCAKAASYPVRAFYYWGQGTQVTVSS | high polyreactivity |
| QVQLVESGGGLVQAGGSLRLSCAASGRIFRVNAMGWYRQAPGKERELVATITGSGGSTYYADSVKGRFTISRDNAKNTVHLQMNSLKPEDTAVYYCAVDRGRGSTYKYDYWGQGTQVTVSS | low polyreactivity |
| QVQLVESGGGLVQAGGSLRLSCAASGRIFRVYAMGWSRQAPGKERELVAAIRWTGGSTYYADSVKGRFKISRDNAKNTVYIQIHSLKAEDTAVSYCAAGRYYSDGSRTIYDYWGQGTQVTGSS | high polyreactivity |
| QVQLVESGGGLVQAGGSLRLSCAASGRIFRVYAMGWYRQAPGKERELVAAISSSGSSTYYADSVKGRFTISRDNAKYTVYLQMNSLKPEDTAVYYCAARGYDISSRYDYWGQGTQVTVSS | high polyreactivity |
| QVQLVESGGGLVQAGGSLRLSCAASGRIFRWYAMGWYRPAPGKERELVAAISRSGTSTYYADSVKGRFTISRDNAKNTVYLQMNSLKPEDTAVYDCAADRTGRIVLSPTDEMDYWGQGTQVTVSS | low polyreactivity |
| QVQLVESGGGLVQAGGSLRLSCAASGRIFRYNAMGGYRQAPGKERELVAAITWRGGSTYYADSVKGRFTISRDNAKNTVYLQMNSLKPEDTAVYYCNKVDSLTFEYDYWGQGTQVTVSS | high polyreactivity |
| QVQLVESGGGLVQAGGSLRLSCAASGRIFRYNAMGLYRQAPGKERELVAAISRSGGSTYYADSVKGRFTISRDNAKNTVYLQMNSLKPEDTAVYYCAVRRDGSGGNLDYWGQGTQVTVSS | high polyreactivity |
| QVQLVESGGGLVQAGGSLRLSCAASGRIFRYNAMGWYRQAPGKEREFVAAISWSGDRTYYADSVKGRFTISRDNAKNTGYLQMNSLKTEDTAVYYCADVPATSYPRRYVYAYYYWGQGTQVTVSS | high polyreactivity |
| QVQLVESGGGLVQAGGSLRLSCAASGRIFRYNAMGWYRQAPGKERELVAAISSGGSTNYADSVKGRFTTSRDNAKNTVYLQMNSLKPEDTAVYYCNAESVHRYPGWGYDYWGQGTQVTVSS | low polyreactivity |
| QVQLVESGGGLVQAGGSLRLSCAASGRIFRYNAMGWYRQAPGKERELVAALTSGGSTNYADSVKGRFTISRDNAKNTVYLQMNSLKPEDTAVYYCAVTGYRPYAYRRRYPYDYWGQGTQVTVSS | high polyreactivity |

| Sequence | polyreactivity (PSR sort gate) |
| --- | --- |
| QVQLVESGGGLVQAGGSLRLSCAASGRIFRYNAMGWYRQPPGKEREFVARISVITGRTYYADSVKGRFTISRDNAKNTVYLQMNSLKPEDTAVYFCAADAGYNYRYLLRGDYWGQGTQVTVSS | high polyreactivity |
| QVQLVESGGGLVQAGGSLRLSCAASGRIFRYNTMGRNRHAPGKEREFVAAISYRGASTYYADSVKGRFTISRDNAKNNVYLQMNSLKPEDTAVYYCAAVTISKGFYPYDYWGQGTQVSVSS | high polyreactivity |
| QVQLVESGGGLVQAGGSLRLSCAASGRIFRYSAMGWYRQAPGKERELVAAISSDGSTDYADSVKGRFTISRDNAKNTVYLQMNSLKPEDTAVYYCAASVVSYGHDYWGQGTQVTVSS | low polyreactivity |
| QVQLVESGGGLVQAGGSLRLSCAASGRIFRYYAMGWYRQAPGKEREFVAAITYIGGSTYYADSVKGRFTISRDNAKNTVYLQMNSLKPEDTAVYWGQGTQVTVSS | low polyreactivity |
| QVQLVESGGGLVQAGGSLRLSCAASGRIFRYYAMGWYRQAPGKERELVAAIRSDDSTNYADSVKGRFTISRDNAKNTVYLQMNSLKPEDTAVYYCAAVKAYYGGSRSYYYWGQGTQVTVSS | high polyreactivity |
| QVQLVESGGGLVQAGGSLRLSCAASGRIFRYYAMGWYRQAPGKERELVAAISGGRTYYADSVKGRFTISRDNAKNTVYLQMNSLKPEDTAVYYCNAGGIVWTGYWYDYDYWGQGTQVTVSS | high polyreactivity |
| QVQLVESGGGLVQAGGSLRLSCAASGRIFRYYAMGWYRQAPGKERELVAAITAGGGTTYYADSVKGRFTISSDNAKNTVYLQMNSLKPEDTAVYYCAKDGRYYSHYNYWGQGTQVTVSS | high polyreactivity |
| QVQLVESGGGLVQAGGSLRLSCAASGRIFRYYAMGWYRQAPGKERELVAAITQRGGSTYADSVKGRFTISRDNANNTVYLQMNSLKPEDTAVFYCAYRGSFLYDYWGQGTQVTVSS | low polyreactivity |
| QVQLVESGGGLVQAGGSLRLSCAASGRIFRYYAMGWYRQAPGKERELVARITWSGGRTYYADSVKGRFTISRDNAKNTVYLQMNSLKPEDTAVYYCNARATSGGDYWGQGTQVTVSS | high polyreactivity |
| QVQLVESGGGLVQAGGSLRLSCAASGRIFRYYAMGWYRQAPGKERELVASISNGGGTYYADSVKGRFTISRDNAKNTVYLQMNSLKPEDTAVYYCNARKWSQYIVPLRDYWGQGTQVTVSS | high polyreactivity |
| QVQLVESGGGLVQAGGSLRLSCAASGRIFRYYAMGWYRQAPGKERELVATISRSGGSTFYADSVKGRFTISRDNAKNTVYLQMNSLKPEDTAVYYCNARYQTGGYGYWGQGTQVTVSS | high polyreactivity |
| QVQLVESGGGLVQAGGSLRLSCAASGRIFRYYAMGWYRQAPGKERELVAVINWSGGSTYYADSVKGRFTISRDNAKNTVYFQMNSLKPEDTAVYYCNVYSVYPQFNYWGQGTQVTVSS | high polyreactivity |
| QVQLVESGGGLVQAGGSLRLSCAASGRIFRYYAMGWYRQAPGKETELVAAINWSGGSTYYADSVKGRFTISRDNAKNTVYLQMNSLKPEDTAVYYCNRRAYIRYDSSSLDYWGQGTQVTVSS | low polyreactivity |
| QVQLVESGGGLVQAGGSLRLSCAASGRIFRYYAMGWYRQAPGQERELVAAISWRGGITNYADSVKGRFTISRDNAKNTVYLQMNSLKPEDTAVYYCNRVQGPDSQAKTSMYYWGQGTQVTVSS | high polyreactivity |
| QVQLVESGGGLVQAGGSLRLSCAASGRIFRYYAMGWYRQPPGKERELVAAISSSGGRTYYADSVKGRFTISRDNAKNTVYLQMNSLKPEDTAVYYCAADAPNFGLYRDKDYDYWGQGTQVTVSS | high polyreactivity |
| QVQLVESGGGLVQAGGSLRLSCAASGRIFRYYTMGWYRQAPGKERELVAAITWSGGSTYYADSVKGRFTISRDNAKNTVYLQMNSLKPEDTAVYYCAVVYSPSMDYWGQGTQVTVSS | high polyreactivity |
| QVQLVESGGGLVQAGGSLRLSCAASGRIFRYYVMGWYRQAPGKERELVAAITSGGSTYYADSVKGRFTISRDNAKNTVYLQMNSLKPEDTAVYYCAAETTLPIFYYTQVNYWGQGTQVTVSS | low polyreactivity |
| QVQLVESGGGLVQAGGSLRLSCAASGRIFRYYVMGWYRQAPGKERELVAAITSGTSTNYADSVKGRFTISRDNAKNTVYLQMNSLKPEDTAVYYCAFRSPRGGRTRFNSNYWGQGTQVTVSS | high polyreactivity |
| QVQLVESGGGLVQAGGSLRLSCAASGRIFSAYTMGWYRQAPGNERELVAAIRWSGDSTYYADSVKGRFTISRDNAKNTVYLQKNSLKPEDTAVYYCAARDRWFPRYSSRYYSWGQGTQVSVSS | high polyreactivity |
| QVQLVESGGGLVQAGGSLRLSCAASGRIFSDNAMGWYREAPGKERELVAAITWSSGSTYADSVKGRFTISRDNAKNTVYLQMNSLKPEDTAVYYCNVSPGYEPLDHELDYWGQGTQVTVSS | low polyreactivity |
| QVQLVESGGGLVQAGGSLRLSCAASGRIFSDNAMGWYRQAPGKERELVAAITDRGGSTYYADSVKGRFTISRDNAQNTVYLQMNSLKPEDTAVYYCAARNTPAQLDYWGQGTQVTVSS | low polyreactivity |
